Measured values: US20190218277A1 (Chugai, published 2019)
Where a chain is given by its changes, count along the chain named.

B1: DG_3CH1000-SG1106/3CL012-SK1 (antibody)
heavy: QVQLVQSGPDVEKPGASVKVSCKASGYTFTSYYMHWVRQAPGQGLEWMGVINPRGGSRRSAQKFQGRITMTRDTSTSTVYMELSSLRSEDTAVYYCARGGRALFYDSYTTPFDGGSWWFDPWGQGSLVTVSSASTKGPSVFPLAPSSKSTSGGTAALGCLVKDYFPEPVTVSWNSGALTSGVHTFPAVLQSSGLYSLSSVVTVPSSSLGTQTYICNVNHKPSNTKVDKRVEPKSCDKTHTCPPCPAPEAAGGPSVFLFPPKPKDTLMISRTPEVTCVVVDVSHEDPEVKFNWYVDGVEVHNAKTKPREEQYNSTYRVVSVLTVLHQDWLNGKEYKCKVSNAALPAPISKTISKAKGQPREPQVYTLPPSREEMTKNQVSLTCLVKGFYPSDIAVEWESNGQPENNYKTTPPVLDSDGSFFLYSKLTVDKSRWQQGNVFSCSVLHEALHAHYTRKELSLSP
light: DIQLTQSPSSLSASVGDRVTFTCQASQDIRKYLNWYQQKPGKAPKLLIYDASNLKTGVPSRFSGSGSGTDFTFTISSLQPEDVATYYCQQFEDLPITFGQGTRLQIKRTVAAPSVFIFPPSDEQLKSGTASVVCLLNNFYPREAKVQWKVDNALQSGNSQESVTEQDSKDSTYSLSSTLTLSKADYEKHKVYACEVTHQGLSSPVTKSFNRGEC
B2: DG_3CH1047-SG1106/3CL012-SK1 (antibody)
heavy: B1 heavy with R101E
light: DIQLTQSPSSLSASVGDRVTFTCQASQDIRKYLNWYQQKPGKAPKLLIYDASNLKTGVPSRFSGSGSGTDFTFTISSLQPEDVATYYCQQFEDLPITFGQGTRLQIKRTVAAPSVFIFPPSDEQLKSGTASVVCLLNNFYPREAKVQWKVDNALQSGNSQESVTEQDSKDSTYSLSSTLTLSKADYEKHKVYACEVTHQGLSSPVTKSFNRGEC
B3: DG_3CH953-SG1106/3CL119-SK1 (antibody)
heavy: B1 heavy with Y32N, M34I
light: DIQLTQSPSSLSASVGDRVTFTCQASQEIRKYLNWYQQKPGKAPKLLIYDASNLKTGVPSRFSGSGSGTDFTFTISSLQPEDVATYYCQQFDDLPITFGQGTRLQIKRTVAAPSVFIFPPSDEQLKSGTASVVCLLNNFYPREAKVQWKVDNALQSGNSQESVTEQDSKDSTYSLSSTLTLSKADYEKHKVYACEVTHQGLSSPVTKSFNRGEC
B4: DG_3CH1000-SG1106/3CL119-SK1 (antibody)
heavy: B1 heavy
light: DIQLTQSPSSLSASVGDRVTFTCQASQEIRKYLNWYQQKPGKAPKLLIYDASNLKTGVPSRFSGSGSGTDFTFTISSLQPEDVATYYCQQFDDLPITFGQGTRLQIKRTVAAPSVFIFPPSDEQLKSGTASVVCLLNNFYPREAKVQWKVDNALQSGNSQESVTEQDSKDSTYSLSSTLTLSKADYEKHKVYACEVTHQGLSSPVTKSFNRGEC
B5: DG_3CH1047-SG1106/3CL119-SK1 (antibody)
heavy: B1 heavy with R101E
light: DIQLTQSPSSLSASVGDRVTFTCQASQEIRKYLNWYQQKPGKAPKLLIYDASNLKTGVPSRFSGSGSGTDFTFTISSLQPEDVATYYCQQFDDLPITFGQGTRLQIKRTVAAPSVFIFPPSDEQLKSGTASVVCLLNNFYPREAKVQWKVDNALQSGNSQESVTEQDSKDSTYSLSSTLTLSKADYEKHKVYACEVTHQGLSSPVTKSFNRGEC
B6: DG_3CH1049-SG182/3CL668-SK1 (antibody, V domains shown)
VH: QVQLVQSGAEVKKPGASVKVSCKASGYTFTSYYMHWVRQAPGQGLEWMGVINPRGGSRRSAQKFQGRVTMTRDTSTSTVYMELSSLRSEDTAVYYCARGGEALFYDSYTTPFDGGSWWFDPWGQGSLVTVSS
VL: DIQLTQSPSSLSASVGDRVTITCQASQDIRKYLNWYQQKPGKAPKLLIYDASNLKTGVPSRFSGSGSGTDFTLTISSLQPEDVATYYCQQFEDLPITFGQGTRLQIKR
B7: DG_3CH1046-SG182/3CL668-SK1 (antibody, V domains shown)
VH: B6 VH with E101R
VL: B6 VL
B8: DG_3CH1049-SG182/3CL666-SK1 (antibody, V domains shown)
VH: B6 VH
VL: B6 VL with D28E, E92D
B9: DG_3CH1046-SG182/3CL666-SK1 (antibody, V domains shown)
VH: B6 VH with E101R
VL: B6 VL with D28E, E92D
B10: DG_3CH1049-SG182/3CL633-SK1 (antibody, V domains shown)
VH: B6 VH
VL: B6 VL with E92D
B11: DG_3CH1000-SG1106/3CL-SK1 (antibody)
heavy: B1 heavy
light: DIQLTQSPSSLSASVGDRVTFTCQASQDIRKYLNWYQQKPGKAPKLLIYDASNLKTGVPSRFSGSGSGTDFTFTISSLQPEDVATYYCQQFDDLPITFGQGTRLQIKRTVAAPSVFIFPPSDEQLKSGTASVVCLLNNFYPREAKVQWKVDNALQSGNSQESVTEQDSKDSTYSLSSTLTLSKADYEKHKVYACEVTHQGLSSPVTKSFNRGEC
B12: DG_3CH953-SG1106/3CL012-SK1 (antibody)
heavy: B1 heavy with Y32N, M34I
light: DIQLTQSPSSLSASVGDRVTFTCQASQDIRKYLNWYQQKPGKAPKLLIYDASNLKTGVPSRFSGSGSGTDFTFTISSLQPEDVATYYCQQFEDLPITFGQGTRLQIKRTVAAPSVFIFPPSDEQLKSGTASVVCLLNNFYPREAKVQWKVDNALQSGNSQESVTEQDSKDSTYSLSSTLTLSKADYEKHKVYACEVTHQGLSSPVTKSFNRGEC
B13: EFT (antibody, human IgG1, kappa)
heavy chain: EVQLVESGGGSVKPGGSLKLSCAASGFTFSDHYMYWVRQTPEKRLEWVAIISGGGSYTSYPDSMKGRFTISRDNAKNILHLQMSSLKSEDTAMYYCTRESNGKPGFAYWGQGTLVTVSAASTKGPSVFPLAPSSKSTSGGTAALGCLVKDYFPEPVTVSWNSGALTSGVHTFPAVLQSSGLYSLSSVVTVPSSSLGTQTYICNVNHKPSNTKVDKRVEPKSCDKTHTCPPCPAPELLGGPSVFLFPPKPKDTLMISRTPEVTCVVVDVEFEDPEVKFNWYVDGVEVHNAKTKPREEQYNSTYRVVSVLTVLHQDWLNGKEYKCKVTNKALPAPIEKTISKAKGQPREPQVYTLPPSREEMTKNQVSLTCLVKGFYPSDIAVEWESNGQPENNYKTTPPVLDSDGSFFLYSKLTVDKSRWQQGNVFSCSVMHEALHNHYTQKSLSLSP
light chain: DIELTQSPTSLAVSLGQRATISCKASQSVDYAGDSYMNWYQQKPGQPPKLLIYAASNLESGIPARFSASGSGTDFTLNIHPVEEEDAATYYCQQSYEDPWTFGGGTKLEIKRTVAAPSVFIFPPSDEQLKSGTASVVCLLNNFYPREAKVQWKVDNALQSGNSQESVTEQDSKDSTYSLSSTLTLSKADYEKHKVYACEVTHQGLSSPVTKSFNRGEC
notes: also called Anti-CD154 antibody (SLAPH0336a/SLAPL0336a) with Fc variant EFT (SG1087); SG1087

target: T1, Recombinant soluble E protein (0.8E-His) from DENV-2 (DENV-2, UniProt P14340 281-675); assay: SPR, Biacore T200
T1 construct: also called DENV-2 E protein; DV2

| Binder | binding result |
| --- | --- |
| B1 | binds |
| B2 | binds |
| B3 | binds |
| B4 | binds |
| B5 | binds |
| B6 | binds |
| B7 | binds |
| B8 | binds |
| B9 | binds |
| B10 | binds |
| B11 | binds |
| B12 | binds |

target: T2, Recombinant soluble E protein (0.8E-His) from DENV-4 (DENV-4, UniProt P09866 280-674); assay: SPR, Biacore T200
T2 construct: also called DENV-4 E protein; DV4

| Binder | binding result |
| --- | --- |
| B1 | binds |
| B2 | binds |
| B3 | binds |
| B4 | binds |
| B5 | binds |
| B6 | binds |
| B7 | binds |
| B8 | binds |
| B9 | binds |
| B10 | binds |
| B11 | binds |
| B12 | binds |

target: T3, Recombinant soluble E protein (0.8E-His) from DENV-3 (DENV-3, UniProt P27915 281-673); assay: not given
T3 construct: also called DENV-3 E protein; DV3

| Binder | Kd |
| --- | --- |
| B1 | 0.101 pM |
| B2 | 2.36 pM |
| B3 | 2.17 pM |
| B4 | 1.82 pM |
| B5 | 4.36 pM |
| B6 | 1.55 pM |
| B7 | 0.559 pM |
| B8 | 2.95 pM |
| B9 | 0.47 pM |
| B10 | 4.1 pM |
| B11 | 0.299 pM |
| B12 | 10.6 pM |

target: T4, Recombinant soluble E protein (0.8E-His) from DENV-1 (DENV-1, UniProt P27909 281-675); assay: not given
T4 construct: also called DENV-1 E protein; DV1

| Binder | Kd |
| --- | --- |
| B1 | 1910 pM |
| B2 | 2180 pM |
| B3 | 1960 pM |
| B4 | 1910 pM |
| B5 | 2290 pM |
| B6 | 1700 pM |
| B7 | 1560 pM |
| B8 | 1720 pM |
| B9 | 1520 pM |
| B10 | 1730 pM |
| B11 | 1840 pM |
| B12 | 1890 pM |

target: T5, human FcγRIa (human, UniProt P12314 16-292); assay: SPR (Biacore T200, pH 7.4, 25 °C): His-tagged FcγR captured by anti-His antibody; antibody injected at 100 nM alone (Ab alone) or as 1:1 complex with trimeric CD154 (CD154 IC); binding level / capture level [A]
T5 construct: also called human FcγR1a
T5 sequence (P12314 16-292 limits assumed): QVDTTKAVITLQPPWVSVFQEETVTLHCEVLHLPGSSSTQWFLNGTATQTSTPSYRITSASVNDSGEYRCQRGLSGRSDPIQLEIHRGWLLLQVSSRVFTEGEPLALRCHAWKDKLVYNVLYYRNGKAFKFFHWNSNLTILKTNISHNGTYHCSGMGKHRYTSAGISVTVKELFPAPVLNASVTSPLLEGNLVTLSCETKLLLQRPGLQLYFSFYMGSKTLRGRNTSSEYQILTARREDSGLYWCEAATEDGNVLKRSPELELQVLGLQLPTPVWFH

| Binder | binding result |
| --- | --- |
| B13 | binds |

target: T6, human FcγRIIb (human, UniProt P31994 43-217); assay: SPR (Biacore T200, pH 7.4, 25 °C): His-tagged FcγR captured by anti-His antibody; antibody injected at 100 nM alone (Ab alone) or as 1:1 complex with trimeric CD154 (CD154 IC); binding level / capture level [D]
T6 construct: also called human FcγR2b
T6 sequence: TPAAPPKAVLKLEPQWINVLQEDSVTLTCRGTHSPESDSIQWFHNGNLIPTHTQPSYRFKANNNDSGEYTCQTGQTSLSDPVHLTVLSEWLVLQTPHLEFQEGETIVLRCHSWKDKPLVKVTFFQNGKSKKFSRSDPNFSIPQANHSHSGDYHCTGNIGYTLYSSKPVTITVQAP

| Binder | binding result |
| --- | --- |
| B13 | binds |

target: T7, human FcγRIIIa (158V) (human, UniProt P08637 17-208); assay: SPR (Biacore T200, pH 7.4, 25 °C): His-tagged FcγR captured by anti-His antibody; antibody injected at 100 nM alone (Ab alone) or as 1:1 complex with trimeric CD154 (CD154 IC); binding level / capture level [F]
T7 construct: also called human FcγR3a allelic variant 158V

| Binder | binding result |
| --- | --- |
| B13 | binds |

Target: T8, human FcγRIIIb (NA1) (human, UniProt O75015 17-200)
T8 construct: also called human FcγR3b allelic variant NA1
T8 chain: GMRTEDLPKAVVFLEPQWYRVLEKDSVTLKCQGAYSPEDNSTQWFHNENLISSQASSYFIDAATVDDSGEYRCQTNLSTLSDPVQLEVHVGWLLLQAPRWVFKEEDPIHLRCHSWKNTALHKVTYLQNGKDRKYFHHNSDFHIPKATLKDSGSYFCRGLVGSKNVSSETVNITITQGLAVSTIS
Assay: SPR (Biacore T200, pH 7.4, 25 °C): His-tagged FcγR captured by anti-His antibody; antibody injected at 100 nM alone (Ab alone) or as 1:1 complex with trimeric CD154 (CD154 IC); binding level / capture level [G]

| Binder | binding result |
| --- | --- |
| B13 | no binding (tested: 100 nM) |

target: T9, mouse FcγRI (mouse, UniProt P26151 25-297); assay: SPR (Biacore T200, pH 7.4, 25 °C): His-tagged FcγR captured by anti-His antibody; antibody injected at 100 nM alone (Ab alone) or as 1:1 complex with trimeric CD154 (CD154 IC); binding level / capture level [A]
T9 construct: also called mFcγRI; mouse FcγR1
T9 sequence: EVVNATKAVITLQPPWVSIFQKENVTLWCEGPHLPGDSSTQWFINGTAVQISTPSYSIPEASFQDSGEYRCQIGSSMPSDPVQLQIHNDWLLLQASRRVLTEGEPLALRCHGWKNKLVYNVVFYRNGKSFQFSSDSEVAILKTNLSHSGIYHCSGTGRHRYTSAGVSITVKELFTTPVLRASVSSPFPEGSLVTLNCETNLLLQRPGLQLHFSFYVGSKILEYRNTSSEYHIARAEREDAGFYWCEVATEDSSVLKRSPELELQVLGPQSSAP

| Binder | binding result |
| --- | --- |
| B13 | binds |

Target: T10, mouse FcγRIII (mouse, UniProt P08508 31-215)
T10 construct: also called mFcγRIII; mouse FcγR3
T10 chain: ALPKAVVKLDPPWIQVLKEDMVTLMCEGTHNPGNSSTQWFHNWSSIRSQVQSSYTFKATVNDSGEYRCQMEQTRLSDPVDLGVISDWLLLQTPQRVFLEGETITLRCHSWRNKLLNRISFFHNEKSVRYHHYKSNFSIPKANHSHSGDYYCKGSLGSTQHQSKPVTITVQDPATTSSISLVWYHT
Assay: SPR (Biacore T200, pH 7.4, 25 °C): His-tagged FcγR captured by anti-His antibody; antibody injected at 100 nM alone (Ab alone) or as 1:1 complex with trimeric CD154 (CD154 IC); binding level / capture level [C]

| Binder | binding result |
| --- | --- |
| B13 | binds |

target: T11, mouse FcγRIV (mouse, UniProt A0A0B4J1G0 21-203); assay: SPR (Biacore T200, pH 7.4, 25 °C): His-tagged FcγR captured by anti-His antibody; antibody injected at 100 nM alone (Ab alone) or as 1:1 complex with trimeric CD154 (CD154 IC); binding level / capture level [D]
T11 construct: also called mFcγRIV; mouse FcγR4
T11 sequence: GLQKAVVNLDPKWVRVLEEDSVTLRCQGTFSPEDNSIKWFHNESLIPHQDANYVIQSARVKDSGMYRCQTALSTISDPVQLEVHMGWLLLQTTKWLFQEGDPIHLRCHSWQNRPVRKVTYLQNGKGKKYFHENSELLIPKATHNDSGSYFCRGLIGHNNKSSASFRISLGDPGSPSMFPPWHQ

| Binder | binding result |
| --- | --- |
| B13 | binds |
